PMC11187563, “The importance of tyrosines in multimers of cyclic RGD nonapeptides: towards αvβ6-integrin targeted radiotherapeutics” (RSC Medicinal Chemistry, 2024)
Like-named read-outs stand apart in the source and are kept apart here.

Experiments:
[1] = system: αvβ6-integrin expressing human lung adenocarcinoma cell line H2009 xenografts; assay: Ex vivo biodistribution of 177Lu-labeled peptide tetramers in H2009 xenografted SCID mice; settings: H2009 bearing SCID mice
Summary of the method: (§1)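 SCID mice carried subcutaneous H2009 xenografts on the right shoulder. 177Lu-labeled conjugates were injected i.v., and ex vivo organ distribution was measured at two time points post-injection.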

[2] = as above; settings: CB17 SCID, mouse, iv, total radioactivity, H2009 bearing SCID mice; for tissue uptake at 1.5 h / tissue to tissue ratio at 1.5 h: 43 pmol, 90 min p.i.; for tissue uptake at 72 h / tissue to tissue ratio at 72 h: 64 pmol, 3 d p.i.
Summary of the method: as §1

[3] = H2009 tumor, read-out: Tumor H2009 %IA/g
[4] = adrenals, read-out: Adrenals %IA/g
[5] = heart (myocard), read-out: Heart (myocard) %IA/g
[6] = kidneys, read-out: Kidneys %IA/g
[7] = large intestine (empty), read-out: Large intestine (empty) %IA/g
[8] = pancreas, read-out: Pancreas %IA/g
[9] = small intestine (empty), read-out: Small intestine (empty) %IA/g
[10] = stomach (empty), read-out: Stomach (empty) %IA/g
[11] = tumor/blood, read-out: tumor/organ ratio, Blood
[12] = tumor/heart (myocard), read-out: tumor/organ ratio, Heart (myocard)
[13] = tumor/liver, read-out: tumor/organ ratio, Liver
[14] = tumor/lung, read-out: tumor/organ ratio, Lung
[15] = tumor/pancreas, read-out: tumor/organ ratio, Pancreas
[16] = tumor/spleen, read-out: tumor/organ ratio, Spleen

CC(C)C[C@@H]1NC(=O)[C@H](CC(=O)O)NC(=O)CNC(=O)[C@H](CCCNC(=N)N)NC(=O)[C@H](Cc2ccccc2)NC(=O)[C@H](CCCCNC(=O)CCc2cn(CCCNC(=O)CCP(=O)(O)CN3CCN(CP(=O)(O)CCC(=O)NCCCn4cc(CCC(=O)NCCCC[C@H]5C(=O)N[C@@H](Cc6ccccc6)C(=O)N[C@@H](CCCNC(=N)N)C(=O)NCC(=O)N[C@@H](CC(=O)O)C(=O)N[C@@H](CC(C)C)C(=O)N[C@@H](C)C(=O)N[C@@H](Cc6ccc(O)cc6)C(=O)N6CCC[C@@H]6C(=O)N5C)nn4)CCN(CP(=O)(O)CCC(=O)NCCCn4cc(CCC(=O)NCCCC[C@H]5C(=O)N[C@@H](Cc6ccccc6)C(=O)N[C@@H](CCCNC(=N)N)C(=O)NCC(=O)N[C@@H](CC(=O)O)C(=O)N[C@@H](CC(C)C)C(=O)N[C@@H](C)C(=O)N[C@@H](Cc6ccc(O)cc6)C(=O)N6CCC[C@@H]6C(=O)N5C)nn4)CCN(CP(=O)(O)CCC(=O)NCCCn4cc(CCC(=O)NCCCC[C@H]5C(=O)N[C@@H](Cc6ccccc6)C(=O)N[C@@H](CCCNC(=N)N)C(=O)NCC(=O)N[C@@H](CC(=O)O)C(=O)N[C@@H](CC(C)C)C(=O)N[C@@H](C)C(=O)N[C@@H](Cc6ccc(O)cc6)C(=O)N6CCC[C@@H]6C(=O)N5C)nn4)CC3)nn2)N(C)C(=O)[C@H]2CCCN2C(=O)[C@H](Cc2ccc(O)cc2)NC(=O)[C@H](C)NC1=O [Compound 177Lu-Y4, metal not drawn]
tumor/organ ratio, Kidneys ([1]; 90 min p.i.): 0.0
tumor/organ ratio, Kidneys ([1]; 3 d p.i.): 0.0
tissue uptake at 1.5 h [2, 3]: 6.91 %ID/g
tissue uptake at 72 h [2, 3]: 2.07 %ID/g
tissue uptake at 1.5 h [2, 4]: 0.52 %ID/g
tissue uptake at 72 h [2, 4]: 0.9 %ID/g
tissue uptake at 1.5 h ([2]; blood, read-out: Blood %IA/g): 1.33 %ID/g
tissue uptake at 72 h ([2]; blood, read-out: Blood %IA/g): 0.02 %ID/g
tissue uptake at 1.5 h ([2]; bone, read-out: Bone %IA/g): 1.84 %ID/g
tissue uptake at 72 h ([2]; bone, read-out: Bone %IA/g): 0.55 %ID/g
tissue uptake at 1.5 h [2, 5]: 0.74 %ID/g
tissue uptake at 72 h [2, 5]: 0.27 %ID/g
tissue uptake at 1.5 h [2, 6]: 219 %ID/g
tissue uptake at 72 h [2, 6]: 203 %ID/g
tissue uptake at 1.5 h [2, 7]: 6.99 %ID/g
tissue uptake at 72 h [2, 7]: 1.33 %ID/g
tissue uptake at 1.5 h ([2]; liver, read-out: Liver %IA/g): 1.06 %ID/g
tissue uptake at 72 h ([2]; liver, read-out: Liver %IA/g): 0.88 %ID/g
tissue uptake at 1.5 h ([2]; lung, read-out: Lung %IA/g): 6.74 %ID/g
tissue uptake at 72 h ([2]; lung, read-out: Lung %IA/g): 1.21 %ID/g
tissue uptake at 1.5 h ([2]; muscle, read-out: Muscle %IA/g): 1 %ID/g
tissue uptake at 72 h ([2]; muscle, read-out: Muscle %IA/g): 0.28 %ID/g
tissue uptake at 1.5 h [2, 8]: 0.37 %ID/g
tissue uptake at 72 h [2, 8]: 0.19 %ID/g
tissue uptake at 1.5 h [2, 9]: 3.05 %ID/g
tissue uptake at 72 h [2, 9]: 0.26 %ID/g
tissue uptake at 1.5 h ([2]; spleen, read-out: Spleen %IA/g): 4.71 %ID/g
tissue uptake at 72 h ([2]; spleen, read-out: Spleen %IA/g): 1.31 %ID/g
tissue uptake at 1.5 h [2, 10]: 10.7 %ID/g
tissue uptake at 72 h [2, 10]: 3.88 %ID/g
tissue to tissue ratio at 72 h ([2]; tumor / adrenals, read-out: tumor/organ ratio, Adrenals): 4.1
tissue to tissue ratio at 72 h ([2]; tumor / bone, read-out: tumor/organ ratio, Bone): 3.8
tissue to tissue ratio at 72 h ([2]; tumor / large intestine (empty), read-out: tumor/organ ratio, Large intestine (empty)): 1.6
tissue to tissue ratio at 72 h ([2]; tumor / muscle, read-out: tumor/organ ratio, Muscle): 9.1
tissue to tissue ratio at 72 h ([2]; tumor / small intestine (empty), read-out: tumor/organ ratio, Small intestine (empty)): 8.2
tissue to tissue ratio at 72 h ([2]; tumor / stomach (empty), read-out: tumor/organ ratio, Stomach (empty)): 0.6
tissue to tissue ratio at 1.5 h ([2]; tumor/adrenals, read-out: tumor/organ ratio, Adrenals): 13.9
tissue to tissue ratio at 1.5 h [2, 11]: 5.2
tissue to tissue ratio at 72 h [2, 11]: 108
tissue to tissue ratio at 1.5 h ([2]; tumor/bone, read-out: tumor/organ ratio, Bone): 3.8
tissue to tissue ratio at 1.5 h [2, 12]: 9.6
tissue to tissue ratio at 72 h [2, 12]: 8.2
tissue to tissue ratio at 1.5 h ([2]; tumor/large intestine (empty), read-out: tumor/organ ratio, Large intestine (empty)): 1
tissue to tissue ratio at 1.5 h [2, 13]: 6.6
tissue to tissue ratio at 72 h [2, 13]: 2.6
tissue to tissue ratio at 1.5 h [2, 14]: 1
tissue to tissue ratio at 72 h [2, 14]: 1.7
tissue to tissue ratio at 1.5 h ([2]; tumor/muscle, read-out: tumor/organ ratio, Muscle): 8.2
tissue to tissue ratio at 1.5 h [2, 15]: 18.6
tissue to tissue ratio at 72 h [2, 15]: 11.3
tissue to tissue ratio at 1.5 h ([2]; tumor/small intestine (empty), read-out: tumor/organ ratio, Small intestine (empty)): 2.6
tissue to tissue ratio at 1.5 h [2, 16]: 1.5
tissue to tissue ratio at 72 h [2, 16]: 1.7
tissue to tissue ratio at 1.5 h ([2]; tumor/stomach (empty), read-out: tumor/organ ratio, Stomach (empty)): 0.7
